Test results as given in PMC7954794, “Protein context shapes the specificity of SH3 domain-mediated interactions in vivo” (Nature Communications, 2021).

Tested on: 575 putative partners (preys) of 22 WT SH3-containing proteins
Test: DHFR-PCA on solid medium, WT and SH3-deleted baits (Fig. 1B)
Type: cell-based, Saccharomyces cerevisiae
Parameters: key to Score: 0: SH3-independent; 1: SH3-dependent PPIs; 2: SH3-inhibited PPIs
Conditions: for SH3-dependent PPIs: number of PPIs, SH3 domain in its own protein, DHFR-PCA, Fig2D,S2F; for medrep (log2 median colony size normalized to plate background, PCA score): label = prey
Outline: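 In S. cerevisiae, 22 SH3-containing baits fused genomically to DHFR F[1,2], either WT or with each SH3 replaced via CRISPR by a poly-Gly/Ser linker, screened against 575 DHFR F[3] preys plus 40 negative controls in 1536 arrays, preys duplicated at randomized positions.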

B1: HSE1 (protein, UniProt P38753 2-452, looked up)
Class E vacuolar …: SSSAIKIRNALLKATDPKLRSDNWQYILDVCDLVKEDPEDNGQEVMSLIEKRLEQQDANVILRTLSLTVSLAENCGSRLRQEISSKNFTSLLYALIESHSVHITLKKAVTDVVKQLSDSFKDDPSLRAMGDLYDKIKRKAPYLVQPNVPEKHNMSTQADNSDDEELQKALKMSLFEYEKQKKLQEQEKESAEVLPQQQQQHQQQNQAPAHKIPAQTVVRRVRALYDLTTNEPDELSFRKGDVITVLEQVYRDWWKGALRGNMGIFPLNYVTPIVEPSKEEIEKEKNKEAIVFSQKTTIDQLHNSLNAASKTGNSNEVLQDPHIGDMYGSVTPLRPQVTRMLGKYAKEKEDMLSLRQVLANAERSYNQLMDRAANAHISPPVPGPALYAGMTHANNTPVMPPQRQSYQSNEYSPYPSNLPIQHPTNSANNTPQYGYDLGYSVVSQPPPGYEQ
  SH3-dependent PPIs: 1

B2: LSB1 (protein, UniProt P53281 2-241, looked up)
LAS seventeen-binding protein …: SASLVNRSLKNIRNELEFLKESNVISGDIFELINSKLPEKWDGNQRSPQNADTEEYVEALYDFEAQQDGDLSLKTGDKIQVLEKISPDWYRGKSNNKIGIFPANYVKPAFTRSASPKSAEAASSSTVSRPSVPPPSYEPAASQYPSQQVSAPYAPPAGYMQAPPPQQQQAPLPYPPPFTNYYQQPQQQYAPPSQQAPVEAQPQQSSGASSAFKSFGSKLGNAAIFGAGSAIGSDIVNSIF
  SH3-dependent PPIs: 8

B3: BBC1: yeast SH3-containing protein; SH3-deleted or knockout strain (protein, UniProt P47068 1-1157, looked up)
Myosin tail …: MSEPEVPFKVVAQFPYKSDYEDDLNFEKDQEIIVTSVEDAEWYFGEYQDSNGDVIEGIFPKSFVAVQGSEVGKEAESSPNTGSTEQRTIQPEVEQKDLPEPISPETKKETLSGPVPVPAATVPVPAATVPVPAATAVSAQVQHDSSSGNGERKVPMDSPKLKARLSMFNQDITEQVPLPKSTHLDLENIPVKKTIVADAPKYYVPPGIPTNDTSNLERKKSLKENEKKIVPEPINRAQVESGRIETENDQLKKDLPQMSLKERIALLQEQQRLQAAREEELLRKKAKLEQEHERSAVNKNEPYTETEEAEENEKTEPKPEFTPETEHNEEPQMELLAHKEITKTSREADEGTNDIEKEQFLDEYTKENQKVEESQADEARGENVAEESEIGYGHEDREGDNDEEKEEEDSEENRRAALRERMAKLSGASRFGAPVGFNPFGMASGVGNKPSEEPKKKQHKEKEEEEPEQLQELPRAIPVMPFVDPSSNPFFRKSNLSEKNQPTETKTLDPHATTEHEQKQEHGTHAYHNLAAVDNAHPEYSDHDSDEDTDDHEFEDANDGLRKHSMVEQAFQIGNNESENVNSGEKIYPQEPPISHRTAEVSHDIENSSQNTTGNVLPVSSPQTRVARNGSINSLTKSISGENRRKSINEYHDTVSTNSSALTETAQDISMAAPAAPVLSKVSHPEDKVPPHPVPSAPSAPPVPSAPSVPSAPPVPPAPPALSAPSVPPVPPVPPVSSAPPALSAPSIPPVPPTPPAPPAPPAPLALPKHNEVEEHVKSSAPLPPVSEEYHPMPNTAPPLPRAPPVPPATFEFDSEPTATHSHTAPSPPPHQNVTASTPSMMSTQQRVPTSVLSGAEKESRTLPPHVPSLTNRPVDSFHESDTTPKVASIRRSTTHDVGEISNNVKIEFNAQERWWINKSAPPAISNLKLNFLMEIDDHFISKRLHQKWVVRDFYFLFENYSQLRFSLTFNSTSPEKTVTTLQERFPSPVETQSARILDEYAQRFNAKVVEKSHSLINSHIGAKNFVSQIVSEFKDEVIQPIGARTFGATILSYKPEEGIEQLMKSLQKIKPGDILVIRKAKFEAHKKIGKNEIINVGMDSAAPYSSVVTDYDFTKNKFRVIENHEGKIIQNSYKLSHMKSGKLKVFRIVARGYVGW
  SH3-dependent PPIs: 19

B4: LSB3 (protein)
chain: MGINNPIPRSLKSETKKAAKILASFVKPNQVFGADQVIPPDVLKRAKGLAIITILKAGFLFSGRAGSGVIVARLKDGTWSAPSAIAMAGAGAGGMVGIELTDFVFILNTQDAVKSFSEFGTITLGGNVSVSAGPLGRSAEAAASASAGGVAAVFAYSKSKGLFAGVSVEGSAIIERREANRKFYGDNCTAKMILSGRIRPPPAVDPLFRVLESRAFNYRPSNGGRGSFDDDEDDYYDDDDYYNDIPSSFSSTDASSTRPNTRSTRRRAQSGSRYTFDDDDDDDDYGTGYSRNSRLAPTNSGGSGGKLDDPSGASSYYASHRRSGTAQSRARSSRNRWADDEYDDYDDDYESGYRRGNGRDRTKDREVDDLSNRFSKSRISSASTPQTSQGRFTAPTSPSTSSPKAVALYSFAGEESGDLPFRKGDVITILKKSDSQNDWWTGRVNGREGIFPANYVELV
modifications: left off: DHFR F[3], C-terminal, kept
  SH3-dependent PPIs: 19

B5: HOF1 (protein, UniProt Q05080 1-669, looked up)
Cytokinesis protein 2: MSYSYEACFWDPNDNGVNILLGHISQGIRSCDSMILFFKQRSELEKDYARRLGAITGKLDKDIGTNMDYGKLNETFNVVLSVEKARAQSHSKQSEILFRQIYTDTKAFAANLQARYTTLSGKIERLRMDKFNKKKGCEVLQKKLQDAQIRFRDLQLNENNMIGAKRVEHNKRELLKWESNSQEYKVQLDVLKQEYKASQKFWIHEWAQLSCELQEMENARISFLQSKLQQFATSSMETYILEQTKMDMLTNHLNSFTAADEISTFSKENGTGRLKHKTSKGDMNSSANWAQMSSISTTSKKTESYMDNIRKLSSQLKETENKRKLASIDKYEKPLPSPEVTMATQFRNSTPVIRNETKVVANPTLSLRSSPVQLQSNVDDSVLRQKPDKPRPIVGEEQLKPDEDSKNPDEKGLMVHKRNQSLSSPSESSSSNPTDFSHIKKRQSMESMTTSVSSMANSIDDSQRFAKSWNSSNRKRKSMSHLQVPSSASSRSDDGGRTPNSAHNLNEDDYNTRRDTSTSTILFKPPVAVRGTSRGHTHRQSMIMQDSSNPIEDALYEMERIQSSSKPGTKTGNIMDERGVVRDRGITVTLPIVTSEGFPVIEYAKAMYPLIGNEAPGLANFHKGDYLLITEIVNKDWYKGEVYDNDRIDRNHRIGLIPYNFIQLLHQGL
  SH3-dependent PPIs: 4

B6: CYK3 (protein, UniProt Q07533 1-885, looked up)
Cytokinesis protein 3: MATNLTSLKPPFKVKARYGWSGQTKGDLGFLEGDIMEVTRIAGSWFYGKLLRNKKCSGYFPHNFVILLEERLNSSTENGRQPSKIVESFEKSNKVVIPPVPSRYSDERPRPKKKLSSSMPNSPKKPVDSLTKARKAKSKEMVNEKNIYNTQSSRHHNNSAPNLPLASHSKPQVRNFEESMNNPLPPLPPLPDLDNMRKTDKRAPKKSYSANDLHMARSSREYNYYKDNQKFYDGFIPEKRYSLEEDSISSGLFSNSQYLNDSACSSENSFALMSDFSATSAGSFARHKYAQSFSDSLQRSQNANGCSTKINDSQEFGDSNASSRNGKMGDILRKIIIPKRNTNIYSSSVSSPKSPKAYPKLPDIQNLNLSATPDEARDWIAVKCHLNRARTLTKYDKHPRYMRALEENRDLILHPQDSIYNGLNTNEVKGNTKPGLVDVELAELNIEYIDKMTWKRCIRDGTMTLDSWAQTTFSARYSTVLEKLRGIYIFCTEMFALTDDNGTSDFSAEPQNLEKILYRKHCTPYELTWLFKKLANSLGITCEIVIGFLKTPSAINWEFKYNHCWLRILVNKEWRFIDVILGNVTNPIHEFVNNRKIKKAENSYFLMAPLEMIYTHIPPREFEQHIVPSIDQLSALYLPLVFPSFFKNELKLYKFSTALSFLEDSEIYECSLEIPNDVEVFASVVIPTDNEEASSAYRNMELALTQIKKQKAESGRRIALIKAVLPPNVNKGSLYIHSGVRGTQTSIANIHPLSMMVPLTHKGSNMKYEFVIKIPSESIQKIELYIVEPQSRYLFVGNEYSFEVIQSPSDGIVYSSDEGPNQNRKQPMAIKSPSGRVHELVKSDPHFPYGTWKGSIKIKEPGVWSALVIADSGIGWSVFAEWLCV
  SH3-dependent PPIs: 0

B7: YBL039C (protein, UniProt P28274 1-579, looked up)
CTP synthase 1: MKYVVVSGGVISGIGKGVLASSTGMLMKTLGLKVTSIKIDPYMNIDAGTMSPLEHGECFVLDDGGETDLDLGNYERYLGVTLTKDHNITTGKIYSHVIAKERKGDYLGKTVQIVPHLTNAIQDWIERVAKIPVDDTGMEPDVCIIELGGTVGDIESAPFVEALRQFQFKVGKENFALIHVSLVPVIHGEQKTKPTQAAIKGLRSLGLVPDMIACRCSETLDKPTIDKIAMFCHVGPEQVVNVHDVNSTYHVPLLLLEQKMIDYLHARLKLDEISLTEEEKQRGLELLSKWKATTGNFDESMETVKIALVGKYTNLKDSYLSVIKALEHSSMKCRRKLDIKWVEATDLEPEAQESNKTKFHEAWNMVSTADGILIPGGFGVRGTEGMVLAARWARENHIPFLGVCLGLQIATIEFTRSVLGRKDSHSAEFYPDIDEKNHVVVFMPEIDKETMGGSMRLGLRPTFFQNETEWSQIKKLYGDVSEVHERHRHRYEINPKMVDELENNGLIFVGKDDTGKRCEILELKNHPYYIATQYHPEYTSKVLDPSKPFLGLVAASAGILQDVIEGKYDLEAGENKFNF
Bait SLA1-2, DHFR-PCA, Replicates 4 (2 for YCR009C, YDR388W)
  medrep (log2 median colony size normalized to plate background, PCA score): 2.2515
Bait SLA1-2, label = prey
  Score: 1
Bait SLA1-2, label = prey, only significant differences shown, PPIs completely lost have a ratio of 0.1, gained PPIs 2.5
  Ratio (SH3-deleted/WT medrep): 0.1
Bait SLA1-3, DHFR-PCA, Replicates 4 (2 for YCR009C, YDR388W, YIL033C)
  medrep (log2 median colony size normalized to plate background, PCA score): 2.2515
Bait SLA1-3, label = prey
  Score: 0

B8: FUS1 (protein, UniProt P11710 1-512, looked up)
Nuclear fusion protein FUS1: MVATIMQTTTTVLTTVAAMSTTLASNYISSQASSSTSVTTVTTIATSIRSTPSNLLFSNVAAQPKSSSASTIGLSIGLPIGIFCFGLLILLCYFYLKRNSVSISNPPMSATIPREEEYCRRTNWFSRLFWQSKCEDQNSYSNRDIEKYNDTQWTSGDNMSSKIQYKISKPIIPQHILTPKKTVKNPYAWSGKNISLDPKVNEMEEEKVVDAFLYTKPPNIVHIESSMPSYNDLPSQKTVSSKKTALKTSEKWSYESPLSRWFLRGSTYFKDYGLSKTSLKTPTGAPQLKQMKMLSRISKGYFNESDIMPDERSPILEYNNTPLDANDSVNNLGNTTPDSQITSYRNNNIDLITARPHSVIYGTTAQQTLETNFNDHHDCNKSTEKHELIIPTPSKPLKKRKKRRQSKMYQHLQHLSRSKPLPLTPNSKYNGEASVQLGKTYTVIQDYEPRLTDEIRISLGEKVKILATHTDGWCLVEKCNTQKGSIHVSVDDKRYLNEDRGIVPGDCLQEYD
  SH3-dependent PPIs: 0
